Data reported in patent EP1841452B1.

Biological target: mouse TNFR1 on L929 cells (mouse)
Assay: cell-based or functional assay

Substance	ND50, modified L929 cytotoxicity assay without TNF-α (agonism) [pM]
anti-TNFR1 antibody AF-425-PB (R&D Systems)	100
anti-TNFR1 antibody MAB430 (R&D Systems)	10000
